Where two headings read alike, the source gives them in different places.
Experiments:
[1] = target: T1, StAckA (Salmonella typhimurium acetate kinase, AckA) (Salmonella enterica, UniProt P63411); test: kinetic assay after […] min preincubation at […] °C with inhibitor; format: biochemical
T1 construct: expressed in E. coli; Ni-NTA and gel filtration; homodimer
T1 sequence (P63411 1-400): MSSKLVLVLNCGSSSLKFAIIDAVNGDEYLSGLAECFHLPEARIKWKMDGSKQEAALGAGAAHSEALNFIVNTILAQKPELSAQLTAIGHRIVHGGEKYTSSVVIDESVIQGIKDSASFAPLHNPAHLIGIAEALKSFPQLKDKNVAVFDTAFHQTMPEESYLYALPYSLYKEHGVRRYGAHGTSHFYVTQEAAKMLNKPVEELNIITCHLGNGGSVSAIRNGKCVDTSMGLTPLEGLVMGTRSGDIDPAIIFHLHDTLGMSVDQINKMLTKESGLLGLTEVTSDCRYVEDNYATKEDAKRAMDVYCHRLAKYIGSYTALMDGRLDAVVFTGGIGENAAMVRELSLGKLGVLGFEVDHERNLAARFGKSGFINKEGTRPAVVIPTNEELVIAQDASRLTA

[2] = target: T1, StAckA (Salmonella typhimurium acetate kinase, AckA); test: initial velocity assay, acetyl-phosphate synthesis direction; format: biochemical; details: co-substrate acetate, Mg2+, pH 7.5, 37 °C
Text: (§1) initial velocity assay, acetyl-phosphate synthesis direction on StAckA (Salmonella typhimurium acetate kinase, AckA)

[3] = target: T1, StAckA (Salmonella typhimurium acetate kinase, AckA); test: CD thermal denaturation; format: binding; details: read-out: dTm
[4] = target: T1, StAckA (Salmonella typhimurium acetate kinase, AckA); test: X-ray crystal structure, […] Å; format: binding; details: dimeric interface pocket, one citrate per dimer; citrate from crystallization condition
[5] = target: T1, StAckA (Salmonella typhimurium acetate kinase, AckA); test: CD thermal denaturation; format: binding; details: ligand close to its Km, pH 7.5; unliganded reference Tm 45 °C
[6] = target: T1, StAckA (Salmonella typhimurium acetate kinase, AckA); test: inhibition of acetate utilization, kinetic assay; format: biochemical; details: equimolar to acetate; not a substrate
purified protein [7] = substrate: Nc1ncnc2c1ncn2[C@@H]1O[C@H](COP(=O)(O)OP(=O)(O)O)[C@@H](O)[C@H]1O; test: purified protein; format: biochemical, Salmonella enterica; details: reverse reaction (ATP synthesis), acetyl-phosphate, Mg2+, pH 7.5, 37 °C
purified protein [8] = substrate: CCC(=O)O; test: purified protein; format: biochemical, Salmonella enterica; details: ATP, Mg2+, pH 7.5, 37 °C
purified protein [9] = substrate: CC(=O)OP(=O)(O)O; test: purified protein; format: biochemical, Salmonella enterica; details: reverse reaction (ATP synthesis), ADP, Mg2+, pH 7.5, 37 °C
purified protein [10] = substrate: Nc1ncnc2c1ncn2[C@@H]1O[C@H](COP(=O)(O)OP(=O)(O)OP(=O)(O)O)[C@@H](O)[C@H]1O; test: purified protein; format: biochemical, Salmonella enterica; details: co-substrate acetate, Mg2+, pH 7.5, 37 °C
purified protein [11] = substrate: CC(=O)O; test: purified protein; details: ATP, Mg2+, pH 7.5, 37 °C
[12] = substrate: Nc1nc2c(ncn2[C@@H]2O[C@H](COP(=O)(O)OP(=O)(O)OP(=O)(O)O)[C@@H](O)[C@H]2O)c(=O)[nH]1; test: initial velocity assay, acetyl-phosphate synthesis direction; format: biochemical, Salmonella enterica; details: co-substrate acetate, Mg2+, pH 7.5, 37 °C
Text: as §1

[13] = substrate: O=c1ccn([C@@H]2O[C@H](COP(=O)(O)OP(=O)(O)OP(=O)(O)O)[C@@H](O)[C@H]2O)c(=O)[nH]1; test: as above; format: biochemical, Salmonella enterica; details: co-substrate acetate, Mg2+, pH 7.5, 37 °C
Text: as §1

## O=C(O)C[C@H](O)C(=O)O [Malate]
[1]; read-out: [I]
  IC50: 1 ± 0.5 mM

## Nc1ccn([C@@H]2O[C@H](COP(=O)(O)OP(=O)(O)OP(=O)(O)O)[C@@H](O)[C@H]2O)c(=O)n1 [CTP]
[2]
  kcat/Km(s^-1 mM^-1): 88 ± 42 µM

## CCC(=O)C(=O)O [2-KB]
[1]; read-out: [I]
  IC50: 3 ± 1.3 mM

## O=C(O)CC(O)(CC(=O)O)C(=O)O [Citrate]
[1]; read-out: Km
  IC50: 63 ± 15 mM
[3]
  ΔTm at 10000 µM: 10 °C
[4]
  X-ray crystal structure, 1.90 Å: only one citrate binds at the dimeric interface resulting in an asymmetric dimer

## CC(=O)OP(=O)(O)O [Acetyl-phosphate]
[5]
  Tm: 54 °C

## Nc1ncnc2c1ncn2[C@@H]1O[C@H](COP(=O)(O)OP(=O)(O)O)[C@@H](O)[C@H]1O [ADP]
[5]
  Tm: 52 °C

## NCCC(N)C(=O)O (stereo not drawn) [2,4-DAB]
[1]; read-out: kcat/Km(s^-1 mM^-1), saturating cognate ligand, 37 °C
  IC50: 5 ± 2.2 mM

## O=C(O)CCC(=O)O [Succinate]
[1]; read-out: Vmax(μmol min^-1 mg^-1)
  IC50: 75 ± 20 mM

## CCCC(=O)O [butyrate]
[6]
  % reduction of rate at equimolar concentration: 40%

## O=C(O)CCC(=O)C(=O)O [α-KG]
[1]; read-out: kcat(s^-1)
  IC50: 7 ± 1.8 mM

B1: StAckA (Salmonella typhimurium acetate kinase, AckA) (Salmonella enterica subsp. enterica serovar Typhimurium str. LT2) (protein)
chain: MSSKLVLVLNCGSSSLKFAIIDAVNGDEYLSGLAECFHLPEARIKWKMDGSKQEAALGAGAAHSEALNFIVNTILAQKPELSAQLTAIGHRIVHGGEKYTSSVVIDESVIQGIKDSASFAPLHNPAHLIGIAEALKSFPQLKDKNVAVFDTAFHQTMPEESYLYALPYSLYKEHGVRRYGAHGTSHFYVTQEAAKMLNKPVEELNIITCHLGNGGSVSAIRNGKCVDTSMGLTPLEGLVMGTRSGDIDPAIIFHLHDTLGMSVDQINKMLTKESGLLGLTEVTSDCRYVEDNYATKEDAKRAMDVYCHRLAKYIGSYTALMDGRLDAVVFTGGIGENAAMVRELSLGKLGVLGFEVDHERNLAARFGKSGFINKEGTRPAVVIPTNEELVIAQDASRLTA
notes: expressed in E. coli; Ni-NTA and gel filtration; homodimer
Purified protein [7]
  Km: 100 ± 3 µM
  Vmax: 2340 µmol/min/mg
  kcat: 1750 ± 65 s⁻¹
  kcat/Km: 1.7645e+07 ± 10000 M⁻¹ s⁻¹
Purified protein [8]
  Km: 11200 ± 100 µM
  Vmax: 1250 µmol/min/mg
  kcat: 940 ± 85 s⁻¹
  kcat/Km: 85000 ± 10000 M⁻¹ s⁻¹
Purified protein [9]
  Km: 280 ± 40 µM
  Vmax: 2350 µmol/min/mg
  kcat: 1760 ± 25 s⁻¹
  kcat/Km: 6.3e+06 ± 45000 M⁻¹ s⁻¹
Purified protein [10]
  Km: 70 ± 5 µM
  Vmax: 1550 µmol/min/mg
  kcat: 1170 ± 85 s⁻¹
  kcat/Km: 1.686e+07 ± 50000 M⁻¹ s⁻¹
Purified protein [11]
  Km: 1200 ± 100 µM
  Vmax: 1560 µmol/min/mg
  kcat/Km: 985000 M⁻¹ s⁻¹
[12]
  Km: 78 ± 27 µM
[13]
  Km: 96 ± 58 µM

From article PMC3475010 (BMC Structural Biology, 2012)
